The target of experiment [1] is T1, sCD32A (soluble CD32A, negative control receptor) (UniProt P12318 34-217).
T1 construct: extracellular domain
T1 sequence: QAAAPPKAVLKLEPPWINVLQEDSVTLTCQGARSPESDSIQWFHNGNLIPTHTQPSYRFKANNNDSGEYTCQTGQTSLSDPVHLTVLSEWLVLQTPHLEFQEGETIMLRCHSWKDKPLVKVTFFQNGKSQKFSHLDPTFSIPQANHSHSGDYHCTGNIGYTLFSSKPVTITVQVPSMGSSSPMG
Put plainly: SPR (BIAcore), receptor immobilised.

Experiment [2] has as its target T2, sCD16A (soluble CD16A, FcgammaRIIIA) (human, UniProt P08637 17-208).
T2 construct: extracellular domain; given only as soluble; used immobilised (SPR), coated, or biotin/HRP-labelled as probe (ELISA); also called CD16 antigen; sCD16A-Biotin
Put plainly: SPR (BIAcore), receptor immobilised, diabody 6.25-200 nM. (In general: In SPR one partner is held on a chip, and binding of the other changes the refractive index at the surface.)

For experiment [3], the target named is T3, sCD32B (soluble CD32B, FcgammaRIIB) (human, UniProt P31994 43-217).
T3 construct: extracellular domain; also called soluble CD32B ectodomain
T3 sequence: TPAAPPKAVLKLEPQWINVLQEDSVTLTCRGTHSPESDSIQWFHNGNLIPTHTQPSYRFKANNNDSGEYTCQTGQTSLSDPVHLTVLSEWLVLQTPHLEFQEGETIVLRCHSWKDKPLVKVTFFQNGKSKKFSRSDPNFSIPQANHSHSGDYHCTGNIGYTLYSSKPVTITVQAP
The experiment is described as above.

In general, Kd refers to a measure of binding affinity in units of concentration. A higher Kd goes with weaker binding.

T2 sequence (P08637 17-208): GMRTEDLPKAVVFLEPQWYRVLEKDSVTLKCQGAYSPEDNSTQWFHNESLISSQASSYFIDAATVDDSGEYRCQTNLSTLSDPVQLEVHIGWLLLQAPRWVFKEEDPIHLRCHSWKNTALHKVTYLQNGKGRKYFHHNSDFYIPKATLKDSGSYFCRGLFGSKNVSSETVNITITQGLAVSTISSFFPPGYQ

B1: h2B6-h3G8 CBD (covalent bispecific diabody, constructs 1 and 2) (bispecific antibody)
chain 1: EIVLTQSPDFQSVTPKEKVTFTCRTSQSIGTNIHWYQQKPDQSPKLLIKEVSESISGVPSRFSGSGSGTDFTLTINSLEAEDAATYYCQQSNTWPFTFGGGTKVEIKGGGSGGGGQVTLRESGPALVKPTQTLTLTCTFSGFSLSTSGMGVGWIRQPPGKALEWLAHIWWDDDKRYNPALKSRLTISKDTSKNQVVLTMTNMDPVDTATYYCAQINPAWFAYWGQGTLVTVSSLGGC
chain 2: DIVMTQSPDSLAVSLGERATINCKASQSVDFDGDSFMNWYQQKPGQPPKLLIYTTSNLESGVPDRFSGSGSGTDFTLTISSLQAEDVAVYYCQQSNEDPYTFGQGTKLEIKGGGSGGGGQVQLVQSGAEVKKPGASVKVSCKASGYTFTNYWIHWVRQAPGQGLEWIGVIDPSDTYPNYNKKFKGRVTMTVVVSTSTAYMELRSLRSDDTAVYYCARNGDSDYYSGMDYWGQGTTVTVSSLGGC
notes: also called h2B6-h3G8 diabody; h2B6-h3G8 covalent heterodimer
Turning to B1, in experiment [1], the binding result is recorded as “no binding (tested: 100 nM)”. Besides, the dissociation constant (Kd) turned out to be 22.7 nM in experiment [2] and 15 nM in experiment [3].

The values above are taken from patent US20200095333A1 (published 2020).
